Article PMC3431187 (Molecular cell, 2012)
Blank lines part the entries; values can stand above or below the binder they belong to. No end group written: not given here. fluorescein = fluorescein label on the N-terminus, attached through a 6-aminohexanoyl (Ahx) spacer; Ahx = NCCCCCC(=O)O

B1: rhophilin 2-PDZ (PDZ domain of rhophilin-2), wild type (domain or fragment, human, UniProt Q8IUC4 515-593, looked up)
chain: RSIRFTAEEGDLGFTLRGNAPVQVHFLDPYCSASVAGAREGDYIVSIQLVDCKWLTLSEVMKLLKSFGEDEIEMKVVSL
B2: F-Ahx-EYLGLDVPV (N-fluorescein-labeled ErbB2 C-terminal peptide) (peptide)
peptide: {fluorescein-Ahx}-EYLGLDVPV

What was measured:
[1] = target: B2; experiment: fluorescence polarisation
[2] = target: other peptides (tested with rhophilin 2-PDZ, Table S4); experiment: fluorescence polarisation
[3] = target: B1; experiment: fluorescence polarisation
[4] = target: T1, rhophilin 2-PDZ K576E/K579E (human, UniProt Q8IUC4 515-593, K576E | K579E); experiment: pull-down
T1 sequence (looked up): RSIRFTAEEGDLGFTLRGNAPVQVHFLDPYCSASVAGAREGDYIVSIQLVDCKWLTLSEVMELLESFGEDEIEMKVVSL

[5] = target: B1; experiment: pull-down
[6] = target: T2, rhophilin 2-PDZ K576A/K579A (human, UniProt Q8IUC4 515-593, K576A | K579A); experiment: pull-down
T2 sequence (looked up): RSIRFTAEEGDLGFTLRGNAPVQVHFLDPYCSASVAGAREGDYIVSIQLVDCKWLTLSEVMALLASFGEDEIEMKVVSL

[7] = target: tamalin-PDZ (PDZ domain of tamalin), wild type (mouse, UniProt Q9JJA9 100-186); experiment: fluorescence polarisation
Chain of tamalin-PDZ (PDZ domain of tamalin), wild type (Q9JJA9 100-186): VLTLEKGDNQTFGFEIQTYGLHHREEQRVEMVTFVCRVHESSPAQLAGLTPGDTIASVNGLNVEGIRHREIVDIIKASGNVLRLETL

Binder: B1
fold increase in affinity with PM vesicles against without [1]: 2 fold
fold decrease in affinity with PM vesicles against without [2]: < 1.8 fold

Binder: B2
binding result [3]: binds

Now from value to binder:

binding result [4]: binds
binding result [5]: binds
binding result [6]: binds
B3: GST-EYLGLDVPV (GST fusion of the C-terminal peptide of ErbB2) (peptide)
chain: {GST}-EYLGLDVPV

binding result [7]: binds
B4: F-Ahx-IRDYTQSSSSL (N-terminal-fluorescein-labeled mGluR5 C-terminal peptide) (peptide)
peptide: {fluorescein-Ahx}-IRDYTQSSSSL
